According to PMC6763431, “Methionine in a protein hydrophobic core drives tight interactions required for assembly of spider silk” (Nature Communications, 2019):

Experiments:
[1] = biological target: T1, wild-type N-terminal domain of major ampullate spidroin 1 (MaSp1) from Euprosthenops australis (Euprosthenops australis), Q05H60; assay: SEC-MALS; 20 mM MES, pH 6.0, ionic strength 60 mM (KCl), dimer conditions; µM sample concentration; dimer to monomers; conditions: remark: other sources report otherwise
T1 chain: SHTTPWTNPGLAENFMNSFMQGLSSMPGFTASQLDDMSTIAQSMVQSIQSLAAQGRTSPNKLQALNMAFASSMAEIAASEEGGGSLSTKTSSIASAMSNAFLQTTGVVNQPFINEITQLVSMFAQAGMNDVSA

[2] = biological target: the molecule itself; assay: SEC; high-resolution SEC with Trp fluorescence detection, Superdex-75 Increase 10/300, 0.8 ml/min, 20 mM MES, pH 6.0, ionic strength 20 mM (KCl); elution volume against protein concentration fitted to a monomer/dimer equilibrium; dimer to monomers
[3] = biological target: T2, AttoOxa11-modified L6-NTD mutant Q50C (Euprosthenops australis, AttoOxa11 (maleimide derivative) on the thiol of the engineered cysteine at position 50); assay: MST; 40 nM AttoOxa11-modified L6-NTD Q50C with increasing concentrations of unlabelled L6-NTD, standard untreated capillaries, 50% heating power; bimolecular binding isotherm (pseudo-dimerization); conditions: both partners purified
T2 chain: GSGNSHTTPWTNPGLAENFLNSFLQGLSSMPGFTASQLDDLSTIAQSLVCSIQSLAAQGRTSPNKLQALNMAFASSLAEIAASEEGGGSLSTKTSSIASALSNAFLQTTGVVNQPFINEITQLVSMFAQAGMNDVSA

| Binder | stoichiometry N [1] | Kd [2] | Kd [3] |
| --- | --- | --- | --- |
| wild-type N-terminal domain of major ampullate spidroin 1 (MaSp1) from Euprosthenops australis, Q05H60 24-156 (domain or fragment) SHTTPWTNPGLAENFMNSFMQGLSSMPGFTASQLDDMSTIAQSMVQSIQSLAAQGRTSPNKLQALNMAFASSMAEIAASEEGGGSLSTKTSSIASAMSNAFLQTTGVVNQPFINEITQLVSMFAQAGMNDVSA | 2 | – | – |
| L6-NTD (MaSp1 NTD from E. australis with all six core Met mutated to Leu) (domain or fragment) GSGNSHTTPWTNPGLAENFLNSFLQGLSSMPGFTASQLDDLSTIAQSLVQSIQSLAAQGRTSPNKLQALNMAFASSLAEIAASEEGGGSLSTKTSSIASALSNAFLQTTGVVNQPFINEITQLVSMFAQAGMNDVSA | – | 1100 nM | 3600 ± 1800 nM |
